Data on four substances can be found in patent US8772451.

Assay [1] has as its target cognate MHC/peptide of the 264scTCR (HLA-A2.1/p53 aa 264-272), form in SPR not stated (human). In words: surface plasmon resonance, physiological conditions.
Assay [2] deals with HLA-A2.1 presenting p53 (aa264-273) peptide, on T2 cells (human). Nature of the assay: flow cytometry on peptide-loaded T2 cells, fusion protein at 125 pM, H57-PE detection.
Assay [3] deals with HLA-A2.1 presenting human p53 (aa 149-157) control peptide, on T2 cells (human). The description is as above.
The target in assay [4] is HLA-A2.1 presenting p53 (aa264-273) peptide, on T2 cells (human). In words: quantitative flow cytometry on peptide-loaded T2 cells, PE anti-human IgG detection. (In general: Flow cytometry measures light scatter and fluorescence of single cells or particles in a stream.)

As usually defined, the Kd is the free concentration of one partner at which half of the binding sites on the other are occupied at equilibrium, for simple one-to-one binding. As to 264scTCR, the dissociation constant (Kd) in assay [1] was 100 nM.

“264scTCR/BirA (monomeric, without biotinylation)”: the mean channel fluorescence (MCF) in assay [2] is 95.1 MCF; in assay [3], 13.4 MCF.

For “264scTCR/IgG1 fusion protein (from UniProt P01857 1-330)”, the figures for the mean channel fluorescence (MCF) in assay [2] and in assay [3] were 863 MCF and 119 MCF, respectively. Moreover, the fold increase in staining against 264scTCR/BirA tetramers in assay [4] was 4 to 10 fold.

Regarding “264scTCR/trunIgG1 (from UniProt P01857 1-98)”, the mean channel fluorescence (MCF) turned out to be 55.3 MCF in assay [2] and 10.9 MCF in assay [3].
